# Measured values taken from patent US20200123233A1.
# Changes are numbered by the printed parent chain.
# B1: 214-E8 15GS 214-E8 (VHH)
# chain: EVQLVESGGGSVQAGGSLRLSCAASGGTFNPYVMAWFRQAPGNEREFVARIRWSGGDAYYDDSVKGRFAITRDAAKNTVHLQMNSLKPEDTAVYYCAAATYGYGSYTYGGSYDLWGQGTQVTVSSGGGGSGGGGSGGGGSEVQLVESGGGSVQAGGSLRLSCAASGGTFNPYVMAWFRQAPGNEREFVARIRWSGGDAYYDDSVKGRFAITRDAAKNTVHLQMNSLKPEDTAVYYCAAATYGYGSYTYGGSYDLWGQGTQVTVSS
# B2: 212-C12 15GS 212-C12 (VHH)
# chain: EVQLVESGGGLVQPGGSLRLSCAASGFTFGSSDMSWVRQAPGKGPEWVSGINSGGGRTLYADSVKGRFTISRDNAKNTLYLQMNSLKSEDTAVYYCATDLYGSSWYTDYWSQGTQVTVSSGGGGSGGGGSGGGGSEVQLVESGGGLVQPGGSLRLSCAASGFTFGSSDMSWVRQAPGKGPEWVSGINSGGGRTLYADSVKGRFTISRDNAKNTLYLQMNSLKSEDTAVYYCATDLYGSSWYTDYWSQGTQVTVSS
# B3: 213-E6 5GS 213-E6 (VHH)
# chain: EVQLVESGGGLVQAGASLRLSCAASGSTLSRYGVGWFRQAPGKERELVASVDWSGSRTYYADSVKGRFTISRDNAKNTGYLQMNSLKPDDTAVYYCAADSSVVPGIEKYDDWGLGTQVTVSSGGGGSEVQLVESGGGLVQAGASLRLSCAASGSTLSRYGVGWFRQAPGKERELVASVDWSGSRTYYADSVKGRFTISRDNAKNTGYLQMNSLKPDDTAVYYCAADSSVVPGIEKYDDWGLGTQVTVSS
# B4: LG214C10 (VHH)
# VHH: EVQLVESGGGLVQPGGSLRLSCAASGFIFGSYDMSWVRQAPGKGPEWVSGINSGGGSTGYADSVKGRFTISRDNAKNTLYLQMNSLKPEDTAVYYCSTNLYPTTDDVWGQGTQVTVSS
# B5: LG214F8 (VHH)
# VHH: EVQLVESGGDLVQAGGSLRLSCVASGSTYSINAMGWYRQAPGKLRELVAAFRTGGSTDYADSVKGRFTISRDTAKNTVYLQMNSLKPEDTAVYYCNAEVIYYPYDYWGQGTQVTVSS
# B6: LG214A8 (VHH)
# VHH: EVQLVKSGGGSVQAGGSLRLSCAASGGTFNPYVMAWFRQAPGNEREFVARIRWSGGDAYYDDSVKGRFAITRDAAKNTVHLQMNSLKPEDTAVYYCAAATYGYGSYTYGGSYDLWGQGTQVTVSS
# B7: LG213B7 (VHH)
# VHH: EVQLVESGGGLVQAGGSLRLSCTVSGDTFDNSAAGWYRATSETQRELVARIRSSGSTNYADSVKGRFTVSRDNAKNTVYLQMNSLKPEDTAVYYCNVVSYGEYFWGKGTLVTVSS
# B8: LG213D7 (VHH)
# VHH: B7 VHH
# B9: LG213D6 (VHH)
# VHH: EVQLVESGGGLVQPGGSLRLSCAASGFTFGDSDMSWVRQAPGEGPEWVAGINSGGGSTVYADSVKGRFTISRDNAKNMLYLQMNSLKPEDTAVYLCAQGLMAEVTAGYWGQGTQVTVSS
# B10: LG192C4 (VHH)
# VHH: EVQLVESGGGLVQAGGSLRLSCEASGRTFSSYAMVGWFRQAPGKEREFVAAVTRWSGARTVYADSVKGRFTISRDNAENTVYLQMNSLKPEDTAVYTCAADSTNRNSGAVYYSWAYDYWGQGTQVTVSS
# B11: LG191E4 (VHH)
# VHH: EVQLVESGGGLVQAGGSLRLSCAASGPTFSADTMGWFRQAPGKEREFVATIPWSGGIAYYSDSVKGRFTMSRDNAKNTVDLQMNSLKPEDTALYYCAGSSRIYIYSDSLSERSYDYWGQGTQVTVSS
# B12: LG212A2 (VHH)
# VHH: EVQLVESGGGLVQAGGSLRLSCAASGRTFDTYFVGWFRQAPGKERDFVAAISWSGDRTFYADSVKGRFTISRDNAKNTEYLQMNSLKPEDTAVYYCAAREYGRLYSDSEAYDYWGQGTQVTVSS
# B13: LG212B2 (VHH)
# VHH: EMQLVESGGGLVQAGDSLRLSCAASGDTFSWYVMAWFRQAPGKEREFVTWINRSGASTYYADSVKGRFTIFRDNDKNTVYLQMNSLKPEDTAVYYCAAGGFYGLRTTEERYDTWGQGTQVTVSS
# B14: LG212G2 (VHH)
# VHH: EVQLVESGGGLVQPGGSLRLSCAASGFTFGSHDMSWVRQAPGKGSEWVSGIKSGGGSTLYADSVKGRFAISRDNAKNTLYLQMNSLKPEDTAVYYCATDLYGSTWYPGEDRGTQVTVSS
# B15: LG214H10 (VHH)
# VHH: B6 VHH with K6E
# Target: Rabies virus glycoprotein G, strain CVS-11 (Challenge Virus Standard-11, ATCC VR 959) (Rabies virus, strain CVS-11)
# Experiment: cell-based or functional assay
Binder,CVS neutralizing antibody titre (RFFIT): IU/mg,CVS neutralizing antibody titre (RFFIT): IU/ml,CVS neutralizing antibody titre (RFFIT): IU/nM,CVS neutralizing antibody titre (RFFIT): nM IC50,Potency (IU/nM) increase versus monovalent
B1,349 IU/mg,454 IU/ml,9.78 IU/nM,3.28 nM,31.5 fold
B2,330 IU/mg,330 IU/ml,8.57 IU/nM,3.74 nM,4.6 fold
B3,1300 IU/mg,1290 IU/ml,36 IU/nM,0.88 nM,27.7 fold

# Target: Rabies virus glycoprotein G, Challenge Virus Standard (CVS)-11 strain (Rabies virus, strain CVS-11 (genotype 1 Lyssavirus)) (UniProt O92284)
# Sequence (O92284 20-524 limits assumed): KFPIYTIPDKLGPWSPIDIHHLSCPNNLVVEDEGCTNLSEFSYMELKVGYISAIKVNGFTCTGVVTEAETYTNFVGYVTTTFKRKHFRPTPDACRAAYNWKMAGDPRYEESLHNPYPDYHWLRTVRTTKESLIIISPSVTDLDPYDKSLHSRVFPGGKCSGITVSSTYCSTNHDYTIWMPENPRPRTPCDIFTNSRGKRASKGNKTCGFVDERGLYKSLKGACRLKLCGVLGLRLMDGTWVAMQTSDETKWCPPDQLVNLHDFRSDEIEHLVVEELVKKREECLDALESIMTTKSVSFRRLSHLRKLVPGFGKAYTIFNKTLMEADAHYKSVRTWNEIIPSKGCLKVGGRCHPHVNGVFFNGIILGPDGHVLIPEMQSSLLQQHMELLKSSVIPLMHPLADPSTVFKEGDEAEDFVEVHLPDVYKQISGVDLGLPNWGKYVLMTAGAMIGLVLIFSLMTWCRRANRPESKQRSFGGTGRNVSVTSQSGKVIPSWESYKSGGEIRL
# Experiment: cell-based or functional assay
Binder,"CVS-11 neutralizing antibody titer (RFFIT), IU/mg","CVS-11 neutralizing antibody titer (RFFIT), IU/ml","CVS-11 neutralizing antibody titer (RFFIT), IU/µM","CVS-11 neutralizing antibody titer (RFFIT), nM IC50"
B4,10.6 IU/mg,4.24 IU/ml,0.16 IU/µM,220 nM
B5,7.19 IU/mg,1.15 IU/ml,0.11 IU/µM,325 nM
B6,7.93 IU/mg,9.12 IU/ml,0.12 IU/µM,293 nM
B7,7.38 IU/mg,4.87 IU/ml,0.11 IU/µM,316 nM
B8,7.61 IU/mg,5.1 IU/ml,0.11 IU/µM,305 nM
B9,< 0.48 IU/mg,< 0.5 IU/ml,< 0.01 IU/µM,> 7820 nM
B10,< 0.63 IU/mg,< 0.5 IU/ml,< 0.01 IU/µM,> 5880 nM
B11,< 0.63 IU/mg,< 0.5 IU/ml,< 0.01 IU/µM,> 5960 nM
B12,1.72 IU/mg,1.62 IU/ml,0.03 IU/µM,1340 nM
B13,3.66 IU/mg,2.6 IU/ml,0.05 IU/µM,634 nM
B14,9.31 IU/mg,9.12 IU/ml,0.14 IU/µM,250 nM
B15,8.17 IU/mg,11.4 IU/ml,0.12 IU/µM,284 nM

# Target: Rabies virus glycoprotein G, ERA strain (attenuated vaccine strain, ATCC VR332) (Rabies virus, ERA strain (genotype 1 lyssavirus)) (UniProt P03524)
# Sequence (P03524 20-524 limits assumed): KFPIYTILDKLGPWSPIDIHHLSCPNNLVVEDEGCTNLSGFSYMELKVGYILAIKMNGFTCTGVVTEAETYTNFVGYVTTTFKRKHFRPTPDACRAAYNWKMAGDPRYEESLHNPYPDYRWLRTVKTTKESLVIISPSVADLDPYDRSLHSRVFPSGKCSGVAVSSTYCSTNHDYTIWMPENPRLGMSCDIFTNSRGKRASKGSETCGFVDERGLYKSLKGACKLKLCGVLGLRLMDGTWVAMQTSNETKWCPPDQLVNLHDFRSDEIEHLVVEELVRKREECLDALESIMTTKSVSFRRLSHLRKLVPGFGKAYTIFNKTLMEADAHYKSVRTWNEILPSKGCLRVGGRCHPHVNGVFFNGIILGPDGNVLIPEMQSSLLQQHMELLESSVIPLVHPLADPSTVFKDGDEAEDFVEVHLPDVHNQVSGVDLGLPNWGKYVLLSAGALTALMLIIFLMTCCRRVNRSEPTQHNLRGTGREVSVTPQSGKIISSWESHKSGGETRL
# Experiment: cell-based or functional assay
Binder,ERA neutralizing antibody titer (RFFIT): EU/mg,ERA neutralizing antibody titer (RFFIT): EU/ml,ERA neutralizing antibody titer (RFFIT): EU/µM,ERA neutralizing antibody titer (RFFIT): nM IC50
B4,35.1 EU/mg,14 EU/ml,0.52 EU/µM,63.7 nM
B5,23.8 EU/mg,3.81 EU/ml,0.36 EU/µM,94 nM
B6,< 0.43 EU/mg,< 0.5 EU/ml,< 0.01 EU/µM,> 8560 nM
B7,8.35 EU/mg,5.51 EU/ml,0.12 EU/µM,268 nM
B8,8.91 EU/mg,5.97 EU/ml,0.13 EU/µM,251 nM
B9,< 0.48 EU/mg,< 0.5 EU/ml,< 0.01 EU/µM,> 7820 nM
B10,< 0.63 EU/mg,< 0.5 EU/ml,< 0.01 EU/µM,> 5880 nM
B11,< 0.63 EU/mg,< 0.5 EU/ml,< 0.01 EU/µM,> 5960 nM
B12,0.55 EU/mg,0.52 EU/ml,0.01 EU/µM,3940 nM
B13,2.59 EU/mg,1.84 EU/ml,0.04 EU/µM,865 nM
B14,< 0.51 EU/mg,< 0.5 EU/ml,< 0.01 EU/µM,> 7300 nM

# Target: Rabies virus glycoprotein G, strain CVS-11 (ATCC VR 959) (Rabies virus, strain CVS-11 (genotype 1))
# Experiment: cell-based or functional assay
Binder,CVS neutralizing antibody titer: IU/mg,CVS neutralizing antibody titer: IU/ml,CVS neutralizing antibody titer: IU/µM,CVS neutralizing antibody titer: nM IC50
B15,17.8 IU/mg,25 IU/ml,0.27 IU/µM,111 nM
